Results published in the RNAGym collection of RNA variant scans (doi:10.1073/pnas.2313332121).

B1: TPR t1 (parent)
chain: GACCAAUCUGCCCUCAGAGCUCGAGAACAUCUUCGGAUGCAGAGGAGGCAGGCUUCGGUGGCGCGAUAGCGCCAACGUCCUCAACCUCCAAUGCAUCCCACCACAUGAUGAUGCCUGAAGAGCCUUGGUUUUUUG

Variants of: B1
Test: polymerase ribozyme fitness, log enrichment relative to wild type (log ratio); higher = more active; in vitro selection for triplet polymerase activity
Outline: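 After PCR construction and transcription, each subunit's mutant library from a heterodimeric triplet polymerase ribozyme was annealed with a biotinylated primer, the partner subunit and triplets. Incubation was frozen, at −7 °C, and extended constructs were gel-excised, bound to streptavidin beads and amplified by RT-PCR, in one selection round done in triplicate. Fitness is the logarithm of a genotype's enrichment divided by that of the wild type, from inverse-variance-weighted replicate averages of Illumina-sequenced inputs and outputs. The base of the logarithm is 2, and genotypes needed ≥10 input reads and ≥1 read per output.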

Variant | polymerase ribozyme fitness (log ratio)
A66U G77A | -0.981
G65U G120U | -5.78
C64U C82U U106G | -1.27
C64U C72U | -0.106
C64G U112G G120A | -5.95
C64U C88U | -0.605
C64U C88A | -0.544
C64U A83U | 0.866
G63U U78G U81A A118U U129C | -4.83
C64U C88U U106A U130A | -0.803
G69A C70U C124A | -4.91
G69C C115U G128A | -4.75
G69C C86G | -2.97
A68G G71A C101U | -5.85
G69U A91U C99U U109G | -3.63
G69U C98A | -2.07
G63U C82U G127C | -1.96
C64U C123A | -0.0204
A68G U112G | -2.31
C70A A90G | -1.9
U67A | -5.73

Variant | polymerase ribozyme fitness (log ratio)
U67G | -7.14
U67C | -2.8
A66C G113A | -1.78
G63U C88U | -2.31
C64U C73U | 0.562
G63C C86A A118G | -2.3
G63C U112A | 0.435
G63C U112G | -0.181
C64U C80U | 0.0248
G63U C85G G113A | -2.68
G63U C97U | -1.62
G69A G120U U130A | -2.09
G63U C99U | -4.73
G63U G120C G128C | -4.02
G69U U87A | 0.245
A66U A75U G113A | -2.74
A68G C80A | -6.54
G63C C89A U116C | -3.78
G69A A91C | -5.04
G69U A103G U106A | -4.7
G69U C86G | 0.0893

Variant | polymerase ribozyme fitness (log ratio)
G69U C76G U133A | -2.07
G69U U92A U130A | -1.5
G63C C114U A118C | -3.66
G63A C72G C104G G120A G122U | -6.38
A66G C101A C104A U112A C114U | -5.6
C64U G117U | -1.28
G63A A119U G135U | -1.7
G63U U129C | -1.11
G69U C72U | -0.304
G63U C89U A90G U112A C123G | 0.558
C64U C88U C97U | -0.745
G63U C86G A90U C104A G110U | -6.48
G63U A84C | -1.52
A68G G113U | -4.53
G63A C85A C115U | -4.85
G63A C79A G93U | -4.19
A66U U81G U116G C124A | -5.38
G69U C82G C89A | -1.32
C64U C104G U109A | -6.28
G63U G71C G113A | -6.74
G69A C102U | -4.72

Variant | polymerase ribozyme fitness (log ratio)
A68U U112A | -5.84
G69U G113C G122C G127A U132A | -4.29
A66G C123G U133A | 1.16
G63A G113U G127C | -4.93
G69U G93A A118G G135U | -0.918
G63C C98U | -2.15
C62U U133A | -0.403
G69C C76U | -4.07
G63A C89A C115G | -4.92
A66C U92A | -6.51
C62U U116C | -1.06
G69U C80G | -2.32
G63A U78C A84C U96G U116G | -4.46
C70A A91G | -2.74
G63A G113C | -2.53
C64G U78C | -6.9
G69A U116C | -3.45
G65C G69U C114G G117C C124U G128C | -5.15
G63C C114A | -2.44
G63C C114U | -2.19
G69U G93C A95U A103U C114U | -3.98
